{
  "source": "patent US20180079819A1",
  "key": {"[1]": {"target": "extracellular domain of CD123/IL-3Rα (residues 1-306), histidine tagged (human) (UniProt P26951)", "sequence (P26951 19-306)": "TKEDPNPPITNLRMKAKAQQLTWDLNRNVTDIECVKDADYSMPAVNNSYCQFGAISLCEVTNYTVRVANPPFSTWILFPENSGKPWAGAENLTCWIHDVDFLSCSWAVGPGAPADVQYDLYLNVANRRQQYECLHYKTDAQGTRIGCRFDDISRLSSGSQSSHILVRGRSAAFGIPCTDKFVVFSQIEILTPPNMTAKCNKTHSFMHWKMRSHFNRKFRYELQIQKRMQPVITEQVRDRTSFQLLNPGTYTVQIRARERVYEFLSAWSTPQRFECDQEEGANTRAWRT", "test": "ELISA on plate-coated His-tagged protein, A450"}, "[2]": {"target": "IL3Rα (1-100) chimeric receptor protein: IL3Rα residues 1-100 fused to GMRα residues 115-325, His-tagged (human) (UniProt P15509)", "sequence (P15509 other isoform, or with tags, fused parts or gaps mutant limits assumed, form in doubt)": "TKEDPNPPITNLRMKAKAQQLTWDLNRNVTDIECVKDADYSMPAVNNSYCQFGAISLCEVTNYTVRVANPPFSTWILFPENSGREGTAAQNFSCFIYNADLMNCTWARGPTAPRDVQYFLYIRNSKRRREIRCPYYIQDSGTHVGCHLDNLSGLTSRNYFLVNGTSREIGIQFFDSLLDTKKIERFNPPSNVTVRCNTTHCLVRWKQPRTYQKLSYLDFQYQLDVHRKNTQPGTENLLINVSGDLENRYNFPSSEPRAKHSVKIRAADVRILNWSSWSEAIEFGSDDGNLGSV", "test": "ELISA on plate-coated His-tagged protein, A450"}},
  "data": [
    {"substance": "ch7G3 (antibody)", "values": [
      {"measurement": "EC50", "setting": "[1]", "value": 0.027, "unit": "nM"},
      {"measurement": "EC50", "setting": "[2]", "value": 0.0306, "unit": "nM"}
    ]}
  ]
}
